Results from patent US20100081792A1 (published 2010).

Columns and labels:
[1] = target: T1, human VEGF (human, UniProt P15692-4 27-191); assay: receptor binding assay, dAb cross-linked by anti-Myc tag antibody
T1 construct: also called VEGF165

[2] = target: T2, mouse VEGF (mouse, UniProt Q00731-2 27-190, limits assumed); assay: as above
T2 sequence (looked up): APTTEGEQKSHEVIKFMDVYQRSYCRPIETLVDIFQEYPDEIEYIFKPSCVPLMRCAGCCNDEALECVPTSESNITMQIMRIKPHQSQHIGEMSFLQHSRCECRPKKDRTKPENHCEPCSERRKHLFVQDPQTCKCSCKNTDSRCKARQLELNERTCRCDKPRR

B1: TAR15-26 (other)
VH: EVQLLESGGGLVQPGGSLRLSCAASGFTFGAYPMMWVRQAPGKGLEWVSEISPSGSYTYYADSVKGRFTISRDNSKNTLYLQMNSLRAEDTAVYYCAKDPRKFDYWGQGTLVTVSS
notes: VH dAb; carries a Myc tag in the cross-linked assay
Question: How did the IC50 [1] turn out when B1 was run?
Answer: 3 nM

Question: What about the IC50 [2] of the same binder?
Answer: 10 nM
